From patent US20060233798A1

Legend:
[1] = biological target: CCR5 chemokine receptor on the cell surface (UniProt P51681)
[2] = biological target: CCR5 chemokine receptor on the cell surface (UniProt P51681); experiment: cell-based or functional assay
[3] = biological target: CCR5 chemokine receptor on the cell surface (UniProt P51681); experiment: flow cytometry on mitogen-stimulated PBMC
[4] = biological target: CCR5 chemokine receptor on the cell surface (UniProt P51681); experiment: flow cytometry on L1.2-CCR5+ cells, PE anti-mouse IgG
[5] = biological target: HIV-1JR-FL envelope glycoproteins gp120/gp41 on HeLa-EnvJR-FL+ cells (HIV-1 JR-FL); experiment: cell-based or functional assay

UniProt P51681, sequence (P51681 whole entry): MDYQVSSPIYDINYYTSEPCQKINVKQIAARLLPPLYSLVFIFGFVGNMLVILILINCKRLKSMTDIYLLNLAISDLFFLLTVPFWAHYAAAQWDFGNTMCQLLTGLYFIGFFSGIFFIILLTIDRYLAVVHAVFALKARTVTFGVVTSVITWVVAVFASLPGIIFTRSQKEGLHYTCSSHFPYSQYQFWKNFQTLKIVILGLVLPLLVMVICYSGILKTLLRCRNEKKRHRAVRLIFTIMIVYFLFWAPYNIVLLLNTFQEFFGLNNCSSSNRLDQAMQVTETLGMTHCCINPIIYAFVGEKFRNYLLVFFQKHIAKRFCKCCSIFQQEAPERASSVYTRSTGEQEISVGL

Substance	IC50 [1]	% inhibition of entry attained [2]	% inhibition of fusion attained [2]	IC50, inhibition of JR-FL entry (luciferase reporter virus, U87MG-CD4+CCR5+ cells) [2]	IC50, inhibition of cell-cell fusion (RET assay, PM1 and HeLa-EnvJR-FL+ cells) [2]	IC50 for calcium influx inhibition (RANTES-induced, L1.2-CCR5+ cells) [2]	IC50 for calcium influx inhibition, ratio to the IC50 for 2D7 [2]	% of PBMC stained [3]	fold difference of m.f.i. against PA9 [3]	% of L1.2-CCR5+ cells stained [4]	K (equal to the IC50) of the median effect fit, inhibition of cell-cell fusion (RET assay) [2]	K (equal to the IC50) of the median effect fit, inhibition of env-mediated membrane fusion (RET assay, HeLa-EnvJR-FL+ and PM1 cells) [5]
anti-CCR5 monoclonal antibody PA14	1.58 µg/mL	> 90%	> 90%	0.024 µg/mL	1.7 µg/mL	50 µg/mL	8 fold	> 20%	7 fold	> 90%	–	–
anti-CCR5 mAb 2D7 (antibody)	1.38 µg/mL	–	–	0.026 µg/mL	1.6 µg/mL	–	–	> 20%	–	> 90%	0.36 µg/mL	–
T-20 peptide	–	–	–	–	–	–	–	–	–	–	–	0.017 µg/mL
CD4-IgG2 (from UniProt P01730 26-204; P01730 26-203) (Fc fusion)	–	–	–	–	–	–	–	–	–	–	–	0.31 µg/mL
